Assay results as given in patent US20190194358A1 (ARIZONA BOARD OF REGENTS A BODY CORPORATE OF THE STATE OF …, published 2019).
Ends that are not written are not given here.

Experiments:
transferrin = target: T1, transferrin (human, UniProt P02787 20-698); assay: SPR
T1 construct: also called TRF; pooled human transferrin (Sigma)

AKT1 = target: T2, AKT1 (human, UniProt P31749 1-480, limits assumed); assay: SPR
T2 construct: GST fusion on the Protoarray; also called AKT1_HUMAN; human AKT1

GRP58 = target: T3, GRP58 (human, UniProt P30101 25-505, limits assumed); assay: human protein microarray (Protoarray), fluorescence intensity
T3 construct: GST fusion adsorbed on a nitrocellulose slide
T3 sequence (looked up): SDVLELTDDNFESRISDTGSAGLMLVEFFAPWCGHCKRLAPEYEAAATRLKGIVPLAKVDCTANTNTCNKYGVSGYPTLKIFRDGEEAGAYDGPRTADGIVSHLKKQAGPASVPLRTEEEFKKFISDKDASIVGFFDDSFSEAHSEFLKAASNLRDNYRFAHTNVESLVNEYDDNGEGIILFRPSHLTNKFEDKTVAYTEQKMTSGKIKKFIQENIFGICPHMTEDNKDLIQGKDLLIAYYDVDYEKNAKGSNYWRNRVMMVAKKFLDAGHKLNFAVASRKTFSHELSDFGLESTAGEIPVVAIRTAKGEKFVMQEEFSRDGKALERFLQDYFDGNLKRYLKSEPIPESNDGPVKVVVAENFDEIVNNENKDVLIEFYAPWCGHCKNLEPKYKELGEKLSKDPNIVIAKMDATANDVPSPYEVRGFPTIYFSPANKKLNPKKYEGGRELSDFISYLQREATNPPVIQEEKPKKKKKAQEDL

Fbox-21 = target: T4, Fbox-21 (human, UniProt O94952 1-628); assay: as above
T4 construct: GST fusion adsorbed on a nitrocellulose slide
T4 sequence (looked up): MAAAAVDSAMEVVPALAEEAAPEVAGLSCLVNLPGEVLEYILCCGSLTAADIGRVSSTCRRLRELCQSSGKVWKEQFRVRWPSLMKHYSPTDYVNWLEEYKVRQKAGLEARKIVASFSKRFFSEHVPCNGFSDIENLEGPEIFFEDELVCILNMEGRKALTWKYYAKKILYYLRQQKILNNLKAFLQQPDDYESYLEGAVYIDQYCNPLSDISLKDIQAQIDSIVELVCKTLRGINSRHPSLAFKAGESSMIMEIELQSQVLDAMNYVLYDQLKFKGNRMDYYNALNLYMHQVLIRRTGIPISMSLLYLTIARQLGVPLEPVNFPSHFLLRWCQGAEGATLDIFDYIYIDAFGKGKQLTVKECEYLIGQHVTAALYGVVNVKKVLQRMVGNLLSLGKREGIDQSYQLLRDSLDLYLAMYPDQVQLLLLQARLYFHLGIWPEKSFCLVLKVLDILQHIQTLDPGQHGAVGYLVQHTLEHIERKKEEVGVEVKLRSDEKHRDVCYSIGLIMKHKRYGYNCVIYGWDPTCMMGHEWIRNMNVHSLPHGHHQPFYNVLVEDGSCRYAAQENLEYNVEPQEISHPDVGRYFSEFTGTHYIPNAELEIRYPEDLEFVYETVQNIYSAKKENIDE

HTN1 = target: T5, HTN1 (human, UniProt P15515, limits assumed); assay: Invitrogen ProtoArray Human Protein Microarray v4.0; biotinylated synbody, fluorescently labelled streptavidin; fluorescence intensity above background
T5 construct: GST fusion on the array
T5 chain (looked up): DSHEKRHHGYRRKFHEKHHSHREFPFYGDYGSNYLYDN

CHAF1B = target: T6, CHAF1B (human, UniProt Q13112); assay: as above
T6 construct: GST fusion on the array

MCCC1 = target: T7, MCCC1 (human, UniProt Q96RQ3); assay: as above
T7 construct: GST fusion on the array
T7 sequence (looked up): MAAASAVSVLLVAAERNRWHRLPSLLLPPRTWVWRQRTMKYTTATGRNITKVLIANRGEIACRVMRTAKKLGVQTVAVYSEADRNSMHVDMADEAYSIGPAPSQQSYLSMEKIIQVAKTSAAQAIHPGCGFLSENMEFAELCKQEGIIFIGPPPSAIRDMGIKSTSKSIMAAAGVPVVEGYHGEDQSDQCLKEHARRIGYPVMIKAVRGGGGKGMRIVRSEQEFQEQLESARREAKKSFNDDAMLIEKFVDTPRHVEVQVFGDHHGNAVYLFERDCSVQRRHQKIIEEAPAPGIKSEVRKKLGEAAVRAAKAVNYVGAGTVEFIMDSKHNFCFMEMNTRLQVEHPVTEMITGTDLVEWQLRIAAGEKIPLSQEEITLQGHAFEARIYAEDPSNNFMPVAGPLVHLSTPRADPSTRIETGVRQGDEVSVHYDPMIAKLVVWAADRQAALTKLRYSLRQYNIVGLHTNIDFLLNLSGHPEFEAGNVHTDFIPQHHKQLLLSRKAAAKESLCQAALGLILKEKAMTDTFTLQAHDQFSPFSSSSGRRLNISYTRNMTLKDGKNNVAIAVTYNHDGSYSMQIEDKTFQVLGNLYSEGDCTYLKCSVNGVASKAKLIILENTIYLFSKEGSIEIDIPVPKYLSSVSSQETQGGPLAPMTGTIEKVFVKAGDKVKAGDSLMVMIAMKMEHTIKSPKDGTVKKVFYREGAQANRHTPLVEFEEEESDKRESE

CLEC1 = target: T8, CLEC1 (human, UniProt Q8NC01); assay: as above
T8 construct: GST fusion on the array
T8 sequence (looked up): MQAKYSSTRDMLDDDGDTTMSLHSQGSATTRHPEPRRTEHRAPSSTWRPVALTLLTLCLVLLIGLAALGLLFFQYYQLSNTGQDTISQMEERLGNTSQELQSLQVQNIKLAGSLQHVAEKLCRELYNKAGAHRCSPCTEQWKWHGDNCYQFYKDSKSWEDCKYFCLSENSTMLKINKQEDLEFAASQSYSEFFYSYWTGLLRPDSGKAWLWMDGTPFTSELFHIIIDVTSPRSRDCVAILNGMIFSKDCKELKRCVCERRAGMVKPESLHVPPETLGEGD

ACTC = target: T9, ACTC (human, UniProt P68032); assay: as above
T9 construct: GST fusion on the array

T6 sequence (Q13112 whole entry, the tested form may be a part): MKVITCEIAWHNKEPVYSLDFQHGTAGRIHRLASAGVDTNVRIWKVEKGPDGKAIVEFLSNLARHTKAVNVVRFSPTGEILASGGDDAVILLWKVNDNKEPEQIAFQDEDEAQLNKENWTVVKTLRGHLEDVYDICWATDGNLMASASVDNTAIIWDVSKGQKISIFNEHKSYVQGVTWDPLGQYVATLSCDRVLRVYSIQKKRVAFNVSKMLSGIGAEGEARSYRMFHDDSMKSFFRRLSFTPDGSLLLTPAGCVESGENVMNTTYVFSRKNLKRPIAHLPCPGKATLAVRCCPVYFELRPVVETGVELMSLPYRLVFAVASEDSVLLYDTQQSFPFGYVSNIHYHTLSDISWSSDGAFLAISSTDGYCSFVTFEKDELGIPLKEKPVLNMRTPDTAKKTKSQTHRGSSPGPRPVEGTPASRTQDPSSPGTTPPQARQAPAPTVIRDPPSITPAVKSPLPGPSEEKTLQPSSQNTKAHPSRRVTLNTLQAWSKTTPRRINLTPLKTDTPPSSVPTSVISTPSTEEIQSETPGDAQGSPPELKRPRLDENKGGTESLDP
T2 sequence (P31749 whole entry, the tested form may be a part): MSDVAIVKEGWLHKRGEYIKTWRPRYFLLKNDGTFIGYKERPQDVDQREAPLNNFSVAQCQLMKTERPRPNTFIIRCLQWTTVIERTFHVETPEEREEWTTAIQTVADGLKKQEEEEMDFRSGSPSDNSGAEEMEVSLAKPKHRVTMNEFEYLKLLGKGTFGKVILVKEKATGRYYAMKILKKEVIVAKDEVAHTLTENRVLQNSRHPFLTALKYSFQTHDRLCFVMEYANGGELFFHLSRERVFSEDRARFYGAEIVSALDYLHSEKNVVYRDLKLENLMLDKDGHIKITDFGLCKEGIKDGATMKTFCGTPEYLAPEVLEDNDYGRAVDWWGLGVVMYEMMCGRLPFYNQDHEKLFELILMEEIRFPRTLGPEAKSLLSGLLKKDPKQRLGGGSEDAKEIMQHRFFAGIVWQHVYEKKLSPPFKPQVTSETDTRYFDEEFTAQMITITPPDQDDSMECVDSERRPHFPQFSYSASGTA
T1 sequence (P02787 20-698 limits assumed): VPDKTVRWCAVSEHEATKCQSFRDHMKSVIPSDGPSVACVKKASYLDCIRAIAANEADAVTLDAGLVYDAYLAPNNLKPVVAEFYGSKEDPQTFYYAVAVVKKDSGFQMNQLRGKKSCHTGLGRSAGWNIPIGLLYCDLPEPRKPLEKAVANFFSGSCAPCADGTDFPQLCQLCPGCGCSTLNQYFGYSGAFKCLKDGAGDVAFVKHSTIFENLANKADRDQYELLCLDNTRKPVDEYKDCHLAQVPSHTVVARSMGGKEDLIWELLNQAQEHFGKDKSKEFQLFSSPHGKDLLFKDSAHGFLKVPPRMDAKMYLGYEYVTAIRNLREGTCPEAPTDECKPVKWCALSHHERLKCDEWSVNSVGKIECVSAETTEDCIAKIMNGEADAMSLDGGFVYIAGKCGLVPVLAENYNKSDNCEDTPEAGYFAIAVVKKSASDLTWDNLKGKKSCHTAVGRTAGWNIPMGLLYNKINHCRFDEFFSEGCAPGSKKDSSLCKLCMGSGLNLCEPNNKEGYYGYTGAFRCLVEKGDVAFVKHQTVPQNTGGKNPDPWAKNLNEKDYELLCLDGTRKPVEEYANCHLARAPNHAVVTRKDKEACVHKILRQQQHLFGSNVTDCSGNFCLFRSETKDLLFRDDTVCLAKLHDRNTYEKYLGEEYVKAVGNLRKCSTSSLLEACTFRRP

B1: SYN23-26 (designed binder)
peptide 1: AHKVVPQRQIRHAYNRYGSG
peptide 2: FRGWAHIFFGPHVIYRGGSG
modifications: also: two chains joined by their C-termini to a branching Lys (epsilon/alpha N), Lys linker followed by Cys, Cys thiol biotinylated
notes: Lysine linker followed by cysteine; the thiol of the cysteine biotinylated for the protein array; also called anti-TRF synbody
Q: Which Kd (transferrin) does the source give for B1 here?
A: The Kd was ~141 nM.

Q: What about the Kd (AKT1) of the same binder?
A: The Kd was ~1 nM.

Q: Does B1 bind (GRP58)?
A: Result: binds

Q: Does B1 bind (Fbox-21)?
A: Result: binds

Q: Does B1 bind (HTN1)?
A: Result: binds

Q: Does B1 bind (CHAF1B)?
A: Result: binds

Q: Does B1 bind (MCCC1)?
A: Result: binds

Q: Does B1 bind (CLEC1)?
A: Result: binds

Q: Does B1 bind (ACTC)?
A: Result: binds
